Laboratory results published in paper doi:10.1101/2025.02.22.639503 (bioRxiv, 2025).
Values joined by “and” are separate entries in the source; they are usually repeats but may differ in a detail not shown here. Equal values may be shown once.

T1: HSV-1 terminase subunit pUL28 (herpes simplex virus 1 (HSV-1, strain …, UniProt P10212 1-785))
T1 sequence: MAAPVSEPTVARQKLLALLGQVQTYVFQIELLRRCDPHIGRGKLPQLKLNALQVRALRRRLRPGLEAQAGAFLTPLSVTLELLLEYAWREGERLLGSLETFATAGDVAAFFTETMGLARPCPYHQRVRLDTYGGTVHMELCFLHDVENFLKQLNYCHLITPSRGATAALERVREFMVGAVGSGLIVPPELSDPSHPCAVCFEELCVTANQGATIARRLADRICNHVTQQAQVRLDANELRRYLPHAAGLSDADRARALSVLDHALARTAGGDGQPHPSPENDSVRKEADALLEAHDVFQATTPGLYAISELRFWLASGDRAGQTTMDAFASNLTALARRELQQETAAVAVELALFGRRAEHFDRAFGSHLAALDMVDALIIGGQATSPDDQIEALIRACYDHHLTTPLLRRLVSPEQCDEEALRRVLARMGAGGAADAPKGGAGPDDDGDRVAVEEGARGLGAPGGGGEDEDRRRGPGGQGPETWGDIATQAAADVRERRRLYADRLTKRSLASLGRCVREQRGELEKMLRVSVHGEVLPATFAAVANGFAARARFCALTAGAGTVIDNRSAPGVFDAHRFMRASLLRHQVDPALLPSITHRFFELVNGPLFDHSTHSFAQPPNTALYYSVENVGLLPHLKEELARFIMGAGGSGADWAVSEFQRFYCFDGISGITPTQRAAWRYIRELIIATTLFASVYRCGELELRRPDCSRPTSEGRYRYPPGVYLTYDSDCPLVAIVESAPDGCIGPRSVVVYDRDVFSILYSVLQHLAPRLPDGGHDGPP

B1: HSV-1 terminase subunit pUL33 (natural protein)
chain: MAGREGRTRQRTLRDTIPDCALRSQTLESLDARYVSRDGAHDAAVWFEDMTPAELEVVFPTTDAKLNYLSRTQRLASLLTYAGPIKAPDDAAAPQTPDTACVHGELLAAKRERFAAVINRFLDLHQILRG
B2: HSV-1 terminase subunit pUL15 (His-pUL15) (natural protein)
chain: MFGQQLASDVQQYLERLEKQRQLKVGADEASAGLTMGGDALRVPFLDFATATPKRHQTVVPGVGTLHDCCEHSPLFSAVARRLLFNSLVPAQLKGRDFGGDHTAKLEFLAPELVRAVARLRFKECAPADVVPQRNAYYSVLNTFQALHRSEAFRQLVHFVRDFAQLLKTSFRASSLTETTGPPKKRAKVDVATHGRTYGTLELFQKMILMHATYFLAAVLLGDHAEQVNTFLRLVFEIPLFSDAAVRHFRQRATVFLVPRRHGKTWFLVPLIALSLASFRGIKIGYTAHIRKATEPVFEEIDACLRGWFGSARVDHVKGETISFSFPDGSRSTIVFASSHNTNGIRGQDFNLLFVDEANFIRPDAVQTIMGFLNQANCKIIFVSSTNTGKASTSFLYNLRGAADELLNVVTYICDDHMPRVVTHTNATACSCYILNKPVFITMDGAVRRTADLFLADSFMQEIIGGQARETGDDRPVLTKSAGERFLLYRPSTTTNSGLMAPDLYVYVDPAFTANTRASGTGVAVVGRYRDDYIIFALEHFFLRALTGSAPADIARCVVHSLTQVLALHPGAFRGVRVAVEGNSSQDSAVAIATHVHTEMHRLLASEGADAGSGPELLFYHCEPPGSAVLYPFFLLNKQKTPAFEHFIKKFNSGGVMASQEIVSATVRLQTDPVEYLLEQLNNLTETVSPNTDVRTYSGKRNGASDDLMVAVIMAIYLAAQAGPPHTFAPITRVS
B3: HSV-1 terminase heterotrimer (pUL15, pUL28, pUL33) (complex)
chain 1: B2 chain
chain 2: T1 sequence
chain 3: B1 chain

What was measured:
Assay in all cases: native MS
[1] = molecular target: HSV-1 terminase-associated protein pUL32 (Strep-pUL32) (herpes simplex virus 1 (HSV-1)) (UniProt P10216)
[2] = molecular target: KSHV (HHV-8) pORF68 (TwinStrep-ORF68) (human herpesvirus 8 (KSHV HHV-8))
[3] = molecular target: Alcohol Dehydrogenase from Saccharomyces cerevisiae (Saccharomyces cerevisiae) (UniProt P00330)
[4] = molecular target: B2
[5] = molecular target: T1, HSV-1 terminase subunit pUL28
[6] = molecular target: the molecule itself

## HSV-1 terminase-associated protein pUL32 (Strep-pUL32) (from UniProt P10216 1-596) (natural protein)
[1]
  stoichiometry N: 3

## KSHV (HHV-8) pORF68 (TwinStrep-ORF68) (natural protein)
[2]
  stoichiometry N: 10

## Alcohol Dehydrogenase from Saccharomyces cerevisiae (from UniProt P00330 1-348) (enzyme)
[3]
  stoichiometry N: 4

## B1
[4]
  binding result: binds

## B2
[5]
  binding result: binds

## B3
[6]
  stoichiometry N: 2 and 3
